Experimental data taken from article doi:10.1101/2025.05.13.653810, “Spatial control of secretory vesicle targeting by the Ync13–Rga7–Rng10 complex during cytokinesis” (bioRxiv, 2025).

Molecular target: T1, MBP-Ync13–6xHis (S. pombe, UniProt O13683 1-1237)
T1 construct: Ync13, the S. pombe homolog of Munc13/UNC-13; full-length cDNA between MBP-TEV-GGSGGS and the 6His tag of pET21a; MBP is followed by a TEV site and a GGSGGS linker; also called MBP-Ync13–6His; not shown: MBP, N-terminal, kept; His6, C-terminal, kept
T1 sequence (looked up): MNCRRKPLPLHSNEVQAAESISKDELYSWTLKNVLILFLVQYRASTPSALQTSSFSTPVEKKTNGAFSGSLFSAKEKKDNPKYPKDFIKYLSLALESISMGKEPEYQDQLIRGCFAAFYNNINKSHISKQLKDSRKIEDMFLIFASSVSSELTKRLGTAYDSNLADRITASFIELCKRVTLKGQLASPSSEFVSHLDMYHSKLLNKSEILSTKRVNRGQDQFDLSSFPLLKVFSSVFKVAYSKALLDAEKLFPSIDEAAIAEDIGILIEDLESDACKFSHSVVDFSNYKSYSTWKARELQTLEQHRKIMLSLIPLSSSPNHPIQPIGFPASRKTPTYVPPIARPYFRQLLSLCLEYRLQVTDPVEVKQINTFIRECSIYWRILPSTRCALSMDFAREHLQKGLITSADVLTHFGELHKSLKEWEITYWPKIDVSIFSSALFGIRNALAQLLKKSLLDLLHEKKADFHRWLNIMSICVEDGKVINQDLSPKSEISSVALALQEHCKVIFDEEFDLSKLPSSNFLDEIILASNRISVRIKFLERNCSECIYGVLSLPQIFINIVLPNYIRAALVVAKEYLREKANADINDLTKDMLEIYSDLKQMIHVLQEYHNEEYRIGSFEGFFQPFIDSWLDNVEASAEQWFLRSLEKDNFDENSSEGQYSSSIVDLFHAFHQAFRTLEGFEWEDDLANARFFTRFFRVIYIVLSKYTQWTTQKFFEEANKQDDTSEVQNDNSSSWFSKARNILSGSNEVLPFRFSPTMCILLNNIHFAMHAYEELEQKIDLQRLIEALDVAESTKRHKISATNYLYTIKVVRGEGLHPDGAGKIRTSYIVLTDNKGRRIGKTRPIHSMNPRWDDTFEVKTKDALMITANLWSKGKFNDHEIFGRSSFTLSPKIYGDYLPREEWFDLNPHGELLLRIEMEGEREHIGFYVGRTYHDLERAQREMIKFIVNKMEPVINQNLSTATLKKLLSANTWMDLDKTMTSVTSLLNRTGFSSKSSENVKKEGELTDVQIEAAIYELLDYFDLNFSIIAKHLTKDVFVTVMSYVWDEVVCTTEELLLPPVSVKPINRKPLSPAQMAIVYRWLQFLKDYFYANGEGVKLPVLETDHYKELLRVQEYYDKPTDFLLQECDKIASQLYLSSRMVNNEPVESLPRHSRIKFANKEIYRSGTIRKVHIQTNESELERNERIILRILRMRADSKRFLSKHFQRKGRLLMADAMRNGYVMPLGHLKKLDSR
Assay: supernatant depletion assay; Rga7–6xHis at 4 μM titrated with MBP-Ync13–6xHis immobilized on Cobalt beads; beads pelleted at 16,000 g, supernatants on Coomassie-stained SDS-PAGE, bound fraction fitted
Conditions: both partners purified

- Kd: 10 µM
B1: Rga7–6xHis (natural protein, S. pombe, UniProt O94466 1-695, looked up)
chain: MLSAPSSSTTPASPPTSPPNTTSSDDFAVLKEPKVEAILNSELGLAILNDRIKDYLLTCKELAGFFKKRSILEEESGKNLQKLAKSYLETFQSKHHSPQSFSASVITSMEIHEQLANHSLTLQKTLSAFSDQVIEFHKNAERKRKSIKEYAKKQENAYLEAVMQMDKSKSRFKGAETEYNRALDNKNTGDSQKKVGFFKPKSNAQLTKLEDEARLKAENAESDMHSKIENAQNVQKQLLCIHRPNYIKQFFSLQREIESSLIANYLRYTKLCESNTLLNGLTIRPQKPTPTNCGLQHALDNINANTDFVQYVLHASIKHEDNKNPTDASKTKIIQPPSSYGTGSSAGKTNPPVNPTIKVTAAIPSPLQNTNPAPSTFPNPSVASPAFPNSSTSNPSTAPASASPLASTLKPSTANDTNGSSSSSSSNPRTSSPLASNAENKPPVAQQSPPVLLPTLPPIQTTTIQTSREVAPPPSSINSNRAASPFRPTSVSPQPSSPTKSLLFGARLDAIILREHSNIPNIVMQCTSQVENFGLNLQGIYRVPSSSARVNMLRSQFENNPLLQLHTPEDYENDVHAVADLLKIFFRELREPLIPDNHQRDFIDAGNVEDESRRRDAVHRAINDLPDANYSTIRHLTIHLAKIKENSDVNKMSTNNLAIIWGPTIIKQATIPEISSFSRTIEILIDYCFTIFDYD
notes: Rga7, F-BAR protein and Rho2 GAP of S. pombe; full length, cloned into pET21a between the T7 tag and the 6His tag; also called Rga7–6His; not shown: His6, C-terminal, kept
